# Laboratory results as given in US20220229068A1, “DETECTION OF PROTEIN TO PROTEIN INTERACTIONS” (THE GOVERNING COUNCIL OF THE UNIVERSITY OF TORONTO, priority 2019, published 2022).
# How the values were obtained:
# [1] = biological target: T1, PEX19 (prey, CIC format) (human) (UniProt P40855); experiment: SIMPL ELISA, bait-IN/prey-CIC
# T1 sequence (looked up): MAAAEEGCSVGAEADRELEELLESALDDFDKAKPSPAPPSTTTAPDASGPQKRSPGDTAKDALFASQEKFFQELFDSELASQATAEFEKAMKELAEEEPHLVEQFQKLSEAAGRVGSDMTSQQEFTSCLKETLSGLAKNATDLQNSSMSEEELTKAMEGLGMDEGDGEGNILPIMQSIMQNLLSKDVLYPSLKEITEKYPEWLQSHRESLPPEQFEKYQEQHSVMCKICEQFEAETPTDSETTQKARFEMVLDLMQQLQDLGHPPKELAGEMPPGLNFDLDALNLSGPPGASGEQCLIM
# [2] = biological target: T2, PDPK1 (prey, CIC format) (human) (UniProt O15530); experiment: SIMPL ELISA, bait-IN/prey-CIC
# T2 sequence (looked up): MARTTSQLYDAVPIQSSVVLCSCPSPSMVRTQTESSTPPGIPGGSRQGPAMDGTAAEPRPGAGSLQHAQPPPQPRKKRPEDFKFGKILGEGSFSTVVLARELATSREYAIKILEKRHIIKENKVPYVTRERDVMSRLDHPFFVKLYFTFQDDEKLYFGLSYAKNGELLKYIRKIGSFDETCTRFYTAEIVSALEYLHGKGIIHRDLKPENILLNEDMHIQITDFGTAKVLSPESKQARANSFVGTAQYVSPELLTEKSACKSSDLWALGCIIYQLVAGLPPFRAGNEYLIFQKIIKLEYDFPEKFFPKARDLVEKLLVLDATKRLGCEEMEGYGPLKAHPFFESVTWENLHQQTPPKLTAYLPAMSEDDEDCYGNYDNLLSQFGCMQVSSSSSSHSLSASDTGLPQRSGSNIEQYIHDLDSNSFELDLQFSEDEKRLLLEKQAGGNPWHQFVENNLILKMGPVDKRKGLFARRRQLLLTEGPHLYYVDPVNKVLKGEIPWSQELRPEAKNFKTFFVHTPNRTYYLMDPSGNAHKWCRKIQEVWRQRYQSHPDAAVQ
# [3] = biological target: TCL1A (prey, CIC format) (human) (UniProt P56279); experiment: SIMPL ELISA, bait-IN/prey-CIC
# [4] = biological target: CYB-1 (C. elegans prey, CIC format) (C. elegans) (UniProt Q10653); experiment: SIMPL ELISA, C. elegans lysate, IN/CIC; ratio of spliced signal to total signal
# [5] = biological target: T3, SOC-2 (C. elegans prey, CIC format) (C. elegans) (UniProt Q22875); experiment: as above
# T3 sequence (looked up): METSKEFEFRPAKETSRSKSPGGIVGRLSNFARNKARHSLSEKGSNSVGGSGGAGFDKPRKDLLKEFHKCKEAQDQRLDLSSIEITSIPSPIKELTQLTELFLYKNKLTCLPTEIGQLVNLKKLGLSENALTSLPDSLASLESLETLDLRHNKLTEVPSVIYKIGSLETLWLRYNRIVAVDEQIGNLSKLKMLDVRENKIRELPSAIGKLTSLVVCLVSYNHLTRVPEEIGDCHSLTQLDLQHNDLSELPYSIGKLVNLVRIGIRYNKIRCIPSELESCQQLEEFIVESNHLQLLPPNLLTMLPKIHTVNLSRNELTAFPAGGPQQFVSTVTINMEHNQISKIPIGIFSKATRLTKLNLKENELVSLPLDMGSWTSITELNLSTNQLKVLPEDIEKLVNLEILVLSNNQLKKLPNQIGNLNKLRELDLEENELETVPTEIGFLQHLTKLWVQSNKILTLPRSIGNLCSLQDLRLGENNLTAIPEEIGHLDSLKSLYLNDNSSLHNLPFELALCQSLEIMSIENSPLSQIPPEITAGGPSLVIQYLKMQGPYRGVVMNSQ
# [6] = biological target: T4, SOC-2 (C. elegans prey, IC format) (C. elegans) (UniProt Q22875); experiment: SIMPL ELISA, C. elegans lysate, IN/IC; ratio of spliced signal to total signal
# T4 sequence (looked up): T3 sequence (looked up)
# [7] = biological target: T5, RB1 (prey, CIC format) (human) (UniProt P06400); experiment: SIMPL ELISA, bait-IN/prey-CIC
# T5 sequence (looked up): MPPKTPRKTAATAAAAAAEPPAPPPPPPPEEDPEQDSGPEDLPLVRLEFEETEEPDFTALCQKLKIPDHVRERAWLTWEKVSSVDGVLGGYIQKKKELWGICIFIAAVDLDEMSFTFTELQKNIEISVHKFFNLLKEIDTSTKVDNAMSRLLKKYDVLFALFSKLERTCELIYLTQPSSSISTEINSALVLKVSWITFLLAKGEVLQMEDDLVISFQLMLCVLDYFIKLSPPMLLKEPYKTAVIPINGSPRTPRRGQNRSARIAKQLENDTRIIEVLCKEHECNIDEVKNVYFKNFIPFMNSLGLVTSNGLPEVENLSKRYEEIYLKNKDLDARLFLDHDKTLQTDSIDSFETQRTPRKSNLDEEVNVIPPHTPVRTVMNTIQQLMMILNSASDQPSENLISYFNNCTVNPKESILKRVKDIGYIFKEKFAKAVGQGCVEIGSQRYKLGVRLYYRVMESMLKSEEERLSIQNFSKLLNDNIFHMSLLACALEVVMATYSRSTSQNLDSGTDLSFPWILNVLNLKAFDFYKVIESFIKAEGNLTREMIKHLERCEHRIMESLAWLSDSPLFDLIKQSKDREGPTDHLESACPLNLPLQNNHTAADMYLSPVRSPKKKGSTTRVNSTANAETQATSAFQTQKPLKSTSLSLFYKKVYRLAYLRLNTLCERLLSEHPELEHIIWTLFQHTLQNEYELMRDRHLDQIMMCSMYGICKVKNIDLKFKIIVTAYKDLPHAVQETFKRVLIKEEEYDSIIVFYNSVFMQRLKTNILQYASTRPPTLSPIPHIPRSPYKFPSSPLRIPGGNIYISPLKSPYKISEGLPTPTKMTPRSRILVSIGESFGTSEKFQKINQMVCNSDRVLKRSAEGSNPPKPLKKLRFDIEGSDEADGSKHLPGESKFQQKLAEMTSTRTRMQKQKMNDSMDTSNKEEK
# [8] = biological target: LMNB1 (prey, CIC format) (human) (UniProt P20700); experiment: SIMPL ELISA, bait-IN/prey-CIC
# [9] = biological target: T6, PEX3 (prey, CIC format) (human) (UniProt P56589); experiment: SIMPL ELISA, bait-IN/prey-CIC
# T6 sequence (looked up): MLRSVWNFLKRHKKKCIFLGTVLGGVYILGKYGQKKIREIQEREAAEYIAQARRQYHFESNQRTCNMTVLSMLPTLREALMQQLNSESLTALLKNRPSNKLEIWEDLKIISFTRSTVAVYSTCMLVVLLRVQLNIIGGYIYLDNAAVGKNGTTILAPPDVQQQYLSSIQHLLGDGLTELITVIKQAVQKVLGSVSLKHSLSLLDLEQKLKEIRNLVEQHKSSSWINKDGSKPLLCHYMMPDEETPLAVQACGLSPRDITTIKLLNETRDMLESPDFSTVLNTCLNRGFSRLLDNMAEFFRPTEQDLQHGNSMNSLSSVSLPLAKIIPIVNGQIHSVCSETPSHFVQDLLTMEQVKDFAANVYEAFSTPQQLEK
# [10] = biological target: NPP-1 (C. elegans prey, IC format) (C. elegans); experiment: SIMPL ELISA, C. elegans lysate, IN/IC; ratio of spliced signal to total signal
# [11] = biological target: HSP90AA1 (prey, CIC format) (human) (UniProt P07900); experiment: SIMPL ELISA, bait-IN/prey-CIC
# [12] = biological target: RAD23A (prey, CIC format) (human) (UniProt P54725); experiment: SIMPL ELISA, bait-IN/prey-CIC
# [13] = biological target: RELA (prey, CIC format) (human) (UniProt Q04206); experiment: SIMPL ELISA, bait-IN/prey-CIC
# [14] = biological target: EZR (prey, CIC format) (human) (UniProt P15311); experiment: SIMPL ELISA, bait-IN/prey-CIC
# [15] = biological target: RACK1 (prey, CIC format) (human) (UniProt P63244); experiment: SIMPL ELISA, bait-IN/prey-CIC
# [16] = biological target: PTPN11 (prey, CIC format) (human) (UniProt Q06124); experiment: SIMPL ELISA, bait-IN/prey-CIC
# [17] = biological target: RAN (prey, CIC format) (human) (UniProt P62826); experiment: SIMPL ELISA, bait-IN/prey-CIC
# [18] = biological target: T7, FRS2 (prey, CIC format) (human) (UniProt Q8WU20); experiment: SIMPL ELISA, bait-IN/prey-CIC
# T7 sequence (looked up): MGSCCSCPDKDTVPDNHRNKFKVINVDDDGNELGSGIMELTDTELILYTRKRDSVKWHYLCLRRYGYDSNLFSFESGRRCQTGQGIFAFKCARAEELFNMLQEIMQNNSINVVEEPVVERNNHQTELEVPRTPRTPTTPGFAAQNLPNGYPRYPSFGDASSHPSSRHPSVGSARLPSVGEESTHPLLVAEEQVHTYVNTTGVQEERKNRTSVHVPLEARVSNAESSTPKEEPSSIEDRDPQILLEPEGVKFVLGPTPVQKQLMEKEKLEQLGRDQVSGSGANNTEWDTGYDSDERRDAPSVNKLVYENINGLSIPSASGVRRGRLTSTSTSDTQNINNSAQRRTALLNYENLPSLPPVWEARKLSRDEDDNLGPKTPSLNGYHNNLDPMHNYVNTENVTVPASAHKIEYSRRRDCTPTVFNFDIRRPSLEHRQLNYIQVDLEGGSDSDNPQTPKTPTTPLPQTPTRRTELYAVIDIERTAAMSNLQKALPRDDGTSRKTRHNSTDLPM
# [19] = biological target: T8, NCBP2 (prey, CIC format) (human) (UniProt P52298); experiment: SIMPL ELISA, bait-IN/prey-CIC
# T8 sequence (looked up): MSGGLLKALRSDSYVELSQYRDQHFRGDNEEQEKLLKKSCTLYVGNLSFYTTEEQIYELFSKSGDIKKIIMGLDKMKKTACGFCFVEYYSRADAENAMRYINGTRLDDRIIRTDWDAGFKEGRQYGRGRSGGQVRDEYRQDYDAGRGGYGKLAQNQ
# [20] = biological target: F44B9.8 (C. elegans prey, IC format) (C. elegans) (UniProt P34429); experiment: SIMPL ELISA, C. elegans lysate, IN/IC; ratio of spliced signal to total signal
# [21] = biological target: CCNA1 (prey, CIC format) (human) (UniProt P78396); experiment: SIMPL ELISA, bait-IN/prey-CIC
# [22] = biological target: ZBTB16 (prey, CIC format) (human) (UniProt Q05516); experiment: SIMPL ELISA, bait-IN/prey-CIC
# [23] = biological target: ARHGAP1 (prey, CIC format) (human) (UniProt Q07960); experiment: SIMPL ELISA, bait-IN/prey-CIC
# [24] = biological target: CASP9 (prey, CIC format) (human) (UniProt P55211); experiment: SIMPL ELISA, bait-IN/prey-CIC
# [25] = biological target: T9, ARFIP2 (prey, CIC format) (human) (UniProt P53365); experiment: SIMPL ELISA, bait-IN/prey-CIC
# T9 sequence (looked up): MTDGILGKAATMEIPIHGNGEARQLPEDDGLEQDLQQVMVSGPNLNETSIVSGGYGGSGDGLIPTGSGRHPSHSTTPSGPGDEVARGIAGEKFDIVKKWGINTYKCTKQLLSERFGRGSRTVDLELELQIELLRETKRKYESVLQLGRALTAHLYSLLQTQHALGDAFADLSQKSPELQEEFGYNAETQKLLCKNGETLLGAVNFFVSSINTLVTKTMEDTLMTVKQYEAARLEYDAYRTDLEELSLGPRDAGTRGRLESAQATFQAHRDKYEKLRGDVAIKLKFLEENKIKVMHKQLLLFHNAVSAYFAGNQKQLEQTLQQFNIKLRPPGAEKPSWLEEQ
substance,measurement,setting,value
"AKT1 (bait, IN format) (from UniProt P31749 1-480) (enzyme)",PLU mean,[1],0.218
same,PLU mean,[2],0.486
same,PLU mean,[3],0.111
"CDK-1 (C. elegans bait, IN-V5/HA) (from UniProt P34556 1-332) (enzyme)",ELISA Value Replicate 1,[4],1.1
same,ELISA Value Replicate 2,[4],0.8
"LET-60 (C. elegans bait, IN-V5/HA) (from UniProt P22981 1-184)",ELISA Value Replicate 1,[5],0.79
same,ELISA Value Replicate 2,[5],0.7
same,ELISA Value Replicate 1,[6],1.2
same,ELISA Value Replicate 2,[6],0.59
"LMNA (bait, IN format) (from UniProt P02545 1-664)",PLU mean,[7],1.18
same,PLU mean,[8],0.861
same,PLU mean,[9],0.224
"NPP-11 (C. elegans bait, IN-V5/HA)",ELISA Value Replicate 1,[10],1.8
same,ELISA Value Replicate 2,[10],0.92
"NR3C1 (bait, IN format) (from UniProt P04150 1-777) (receptor)",PLU mean,[11],0.652
same,PLU mean,[12],0.183
same,PLU mean,[13],0.63
"PDE4D (bait, IN format) (from UniProt Q08499 1-809) (enzyme)",PLU mean,[14],0.137
same,PLU mean,[15],0.639
"PDGFRB (bait, IN format) (from UniProt P09619 33-1106) (receptor)",PLU mean,[16],0.539
same,PLU mean,[17],0.143
"RET (bait, IN format) (from UniProt P07949 29-1114) (receptor)",PLU mean,[18],0.608
same,PLU mean,[19],1.06
"RFC-2 (C. elegans bait, IN-V5/HA)",ELISA Value Replicate 1,[20],0.66
same,ELISA Value Replicate 2,[20],0.88
"RHOA (bait, IN format) (from UniProt P61586 1-193)",PLU mean,[21],0.36
same,PLU mean,[22],0.691
same,PLU mean,[23],0.486
"XIAP (bait, IN format) (from UniProt P98170 1-497)",PLU mean,[24],0.811
same,PLU mean,[25],0.439
